Experimental data taken from patent publication US20190194300A1.

Molecular target: Staphylococcus aureus autoinducing peptide-2 (AIP2) (Staphylococcus aureus)
Experiment: SPR, BiaCore T200

B1: wild type anti-AIP2 antibody E7 (antibody, V domains shown)
VH: EVQLVQSGAEVKKPGASVRVSCKTSGYSFTSYDINWVRQTTGQGLEWMGWVNPTSGSTGYAQKFQGRVTMTANTAINTAYMELRDLRSEDTAVYFCVRDVPFDPWGQGTLVTVSS
VL: QSVLTQPASVSGSPGQSITISCTGTSSDVGKYTFVSWYQQHPGKAPKVMVYEVNKRPLGVSPRFSGSKSGNTAYLTISGLQAEDEADYYCSSYTSSSTVVFGGGTKLTVL
Ka: 1.85e+07 M⁻¹
Kd: 53.9 nM
koff: 0.027 s⁻¹
kon: 501000 M⁻¹ s⁻¹

B2: variant anti-AIP2 antibody X18 (antibody, V domains shown)
VH: EVQLVQSGAEVKKPGASVRVSCKTSGYSGTSYDINWVRQTTGQGLEWMGWVNPTSGSTGYAQKFQGRVTMTANTAINTAYMELRDLRSEDTAVYFCVRDVPVDPWGQGTLVTVSS
VL: QSVLTQPASVSGSPGQSITISCTGTSSDVGKYTFVSWYQQHPGKAPKVMVYEVNKRPLGVSPRFSGSKSGNTAYLTISGLQAEDEADYYCSSYASSSTVVFGGGTKLTVL
Ka: 2.85e+07 M⁻¹
Kd: 35 nM
koff: 0.02 s⁻¹
kon: 570000 M⁻¹ s⁻¹

B3: variant anti-AIP2 antibody X12 (antibody, V domains shown)
VH: QVQLVQSGAEVKKPGASVRVSCKTSGYSFTVYDINWVRQTTGQGLEWMGWVNPTSGSTGYAQKFQGRVTMTANTAINTAYMELRDLRSEDTAVYFCVRDVPVDPWGQGTTVTVSS
VL: QSVLTQPASVSGSPGQSITISCTGTSSDVGKYLFVSWYQQHPGKAPKVMVYEVNKRPLGVSPRFSGSKSGNTAYLTISGLQAEDEADYYCSSYTSSSTVVFGGGTKLTVL
Ka: 1.54e+07 M⁻¹
Kd: 64.9 nM
koff: 0.012 s⁻¹
kon: 186000 M⁻¹ s⁻¹
